In the DeepSol protein solubility set:

Test: soluble on expression in E. coli; label from the status in PepcDB or PDB records

| Sequence | soluble on expression in E. coli |
| --- | --- |
| MGSDKIHHHHHHMTTVYSGLISCYNAYPKKHSYRVRRSDKGWHDGAVWYLEKAKIMLRNDNLKIKGLTPEQEENVRAIHAMNPAHILVECATNKSWGGKKELSDLDLDSYKKAADTLYEEGFGLCIRYNRQTSIKEFIQQIVDHIGAAQYDNVETGKQTIKLIRRDYKPEDLPVFNYDNGILSVRDDDSGATDKQPNQVIVKYREPVSNRDDQAIANNIASVRMHGVISKTVEYKGVPTFDLAARLARDLELVASGLTRLKIVFDMRASELKPGDVVRVNLPDRDIVDVVFRVGKLENGNDGEIIATCIQDVFGLPAANYSTQKGESLYIPPDYTANPIQQARLIEVPYHVLPLVLSDAERAFVKPTDCFVWALGAQPTALSVGYDMLVDVGGGYTQTATGSFTPFVRLLEPVSPYQTNIKIKLEGDYAAVAGALALIVDDEIIKIDAVDFKTGTMTVGRGCADTVPQAHKADAVAWCYLLAAGTDESKYTVNERLNVKLLTRTAQQTLDESKAEVLTLTTQQRQARPFCVELGVPRPRRTSGQTDSALGRQHAPRRWRQL | not soluble |
| RRLIRLSDKTIAKSLNTSKFGGDELRRIGFHIRFHRAGALFARCWLLVEGETEVWLFNELARQCGYDLAAEGVQIVEFAQSGLRSLIKVAKEFGIDWHVVTDGDPAGKKYAHTVRAQLGHDQERHRLTELPDRDIEHFLYNHGFELFFKDMIKVPHDHPIPAKKVVNRVLKKHAKPDLALAIVSHCEEKGMECIPVLLRWTLKRIVTMASGNT | not soluble |
| MGSDKIHHHHHHMEKTMDRIYKIGGHCFALPDERLMEAVDGISGFKPFVWQPDLVSAKDVYEGAWLPDFTVWEGNGWGFPAFQRKSYGFGYEDVTGTFGVSGDSFLLELAPQGEPSLYLRTMGGTGRGICLYGNYSPRLLRFALWMGYGLMTVRKDTVALHGSCIVYKGKAVLFLGESGTGKSTHTRLWRENIAGSKLLNDDSPIVRYEEGGVWVYGSPWSGKTPCYKAERYPLAGCVRLSQAPYNKIRRLNTLQAYAALHPSAPPAFAYEEELYCGVCSLLEKMVSSIPVYHLECLPDAEAVKLVCRTLYGDGYEADSE | not soluble |
| MSLALDHVGIATEDAAGLAERFGAVFETQIAHSETFDGMYIIFLDMNGTYLELLEPVDDSDGPIATFLAQRDAGIHHIAIMTEDIATALENARAVGIECIDETPRQGAWGHQVAFLHPRSTGGVLCEFVQQEGHHHHHH | soluble |
| GTKQKMRTVFSQAQLCALKDRFQKQKYLSLQQMQELSSILNLSYKQVKTWFQNQRMKCKRWQ | soluble |
| MGGHHHHHHGENLYFQGISSETGEMGILWEFDPIINKWIRLSMKLKVERKPFAEGALREAYHTVSLGVGTDENYPLGTTTKLFPPIEMISPISKNNEAMTQLKNGTKFVLKLYKKEAEQQASRELYFEDVKMQMVCRDWGNKFNQKKPPKKIEFLMSWVVELIDRSPSSNGQPILCSIEPLLVGEFKKNNSNYGAVLTNRSTPQAFSHFTYELSNKQMIVVDIQGVDDLYTDPQIHTPDGKGFGLGNLGKAGINKFITTHKCNAVCALLDLDVKLGGVLSGNNKKQLQQGTMVMPDILPELMPSDNT | soluble |
| MTKPIIGITANQRLNMALDNLPWSYAPTGFVQAVTQSGGLPLLLPIGDEAAAKTYVSMVDKIILIGGQNVDPKYYQEEKAAFDDDFSPERDTFELAIIKEAITLKKPILGICRGTQLMNVALGGNLNQHIDSHWQEAPSDFLSHEMIIEPDSILYPIYGHKTLINSFHRQSLKTVAKDLKVIARDPRDGTIEAVISTNDAIPFLGVQWHPELLQGVRDEDLQLFRLFVNDF | not soluble |
| MPIIASESSHESIPQDFMDAVESMHKAQLRPEISLGTIRPPQRLAPFSHAVGLEVSGTLSDDSQGDAFGRLILLHDPTSDESWDGSMRLVAYIQADMDASVANDPLLPDVAWQWLTEALDKTHADHTNLGGTVTATASVRFGEIGGPPRAYQVEMRASWTATAIDLAPHVSAFAQVLANVAGLSPEGTTSISR | not soluble |
| MAIESEVLVIGGGLGGLTSALAAAREGADVRLVSYKQSTLRQASGLVDVLGYTPDGDGPLTDPYEAIPSLPEAHPYRKVGVQTVRDALSLFDDAVPTYEGEHTDTNALLPTHGGSIKPTARYPAGASAGLASDTRDTLLVGIEEMVDFDAPHVAAHLDATGVPFDVRGETIRFPGDLRADAKVTRYAKLLDTNSEVAVRGRMVPAREALAQRVNPLLEDEERVGFPAILGDDNPGAIRDALGDHLGVDVFEVPMGPPSLPGLRLEDALFSALDEAGASIETGNPVVDFDGEDRIEKVFIEKNGAKIPNSADQYVLATGGFVGKGVESDREGVYEPVFDCHIPHAADRYDWFEGELFGDHEFARYGVATDDDLRPLDASEHSEFENLRAAGSVLGGYDFAAEKSGSGVSIATGYAAGQRAAQEARLEHHHHHH | soluble |
| SLAEPPAQDPAELAAAAESYLRQQLAALPGEPSITLDPLRTDRLDACEALTPFMPSGMRVRARMTVGLRCVAPRTWTVYAQATVSVPGQYYVAARQIAPGKTIEAADLTTRDGDLVALPPGVITDAAAILGMRPAHRIAAGQPIKGAGLRSAESVSRGQSVRITARGNGFVVSSEGQALDNAPPGATVQVRTASGQVVSGIVQAAGLVEIQL | not soluble |
| SNAMKPDIYENNREGILCVYKNEKWLVCIKNWKPDNDIEGIAHLEIHHSTDEQFILSAGKAILITAEKENDKFNIELTLMEKGKVYNVPAECWFYSITQKDTKMMYVQDSNCSMDNSDFCDLSKEEIEYIQTNARKLFEK | soluble |
| MAHHHHHHMEYDKEKMESLVSKVKEKFGKKVEIVNLKLDVKMPLFEIFLQASIHTQIKIFYARGRTLQYRLPPVFWTRCKILKENKILQEKYGGECAPGLFPQYDEYNIMQIMTECVYNDKYNFYVYDVNLEWENLCALTPENRELRKIVHQNVHVPTRLAVIKAFEQGVEDFRDVIREEYLIMLREQRKLKENKKYKF | not soluble |
| MGHHHHHHSHMAVVRATSADVDLMARLLRAEAEGEGKQGMLLVGNVGINRLRANCSDFKGLRTIRQMIYQPHAFEAVTHGYFYQRARDSERALARGSINGERRWPAKFSLWYFRPQGDCPAQWYNQPFVARFKSHCFYQPTAETCENVYNTF | not soluble |
| MIDLSTEFAGLRLKNPIVAASSGLTRNLKTIKDLEAAGVAAIVLKSLFEEQIEAEMSQMMSPMDYPEAADYINAYVQSNEISKHLDFLREVKREVAIPVIASINCFRSDSWVDFAKQFEEAGADALEINVMRLNTDLFFDANKAEQMYVDIISSLIKAIRIPVVVKLSKSFANIPSLVDKLRAAGAKGVVLFNRSYQPDIDIDKVQMVAGDVFTSAGEISDTIRH | not soluble |
| MTWADEVLAGHPFVVAHRGASAARPEHTLAAYDLALKEGADGVECDVRLTRDGHLVCVHDRRLDRTSTGAGLVSTMTLAQLRELEYGAWHDSWRPDGSHGDTSLLTLDALVSLVLDWHRPVKIFVETKHPVRYGSLVENKLLALLHRFGIAAPASADRSRAVVMSFSAAAVWRIRRAAPLLPTVLLGKTPRYLTSSAATAVGATAVGPSLPALKEYPQLVDRSAAQGRAVYCWNVDEYEDIDFCREVGVAWIGTHHPGRTKAWLEDGRANGTTR | not soluble |
| MGSSHHHHHHSSGLVPRGSHMETLCQRLNVCQDKILTHYENDSTDLRDHIDYWKHMRLECAIYYKAREMGFKHINHQVVPTLAVSKNKALQAIELQLTLETIYNSQYSNEKWTLQDVSLEVYLTAPTGCIKKHGYTVEVQFDGDICNTMHYTNWTHIYICEEASVTVVEGQVDYYGLYYVHEGIRTYFVQFKDDAEKYSKNKVWEVHAGGQVILCPTSVFS | soluble |
| MASETENIKYEESFIKNTRGMKLFTCKWVPAKQEPKALVFICHGYAMECSITMNSTARRLVKAGFAVYGIDYEGHGKSDGLSAYVPNFDHLVDDVSTHYTSICEKEENKGKMRFLLGESMGGAVLLLLHRKKPQFWDGAVLVAPMCKIAEEMKPSPLVISILAKLSGVIPSWKIIPGQDIIETAFKQPEIRKQVRENPYCYKGRPRLKTAYELLRVSTDLEKRLNEVSLPFIVLHGEDDKVTDKAVSRQLYEVASSSDKTFKLYPGMWHGLLYGETPENIETVFADIIGWLDKKVADESGGFESELKRKNDGIPLKG | soluble |
